Measured values as given in patent publication US20120100106A1.
Ends that are not written are not given here. * marks the point of attachment. Dansyl = CN(C)c1cccc2c(S(=O)(=O)*)cccc12

Key:
collagen [1] = test: fluorescence plate binding assay, collagen coated on 96-well high-binding plate, equilibrium fit
collagen [2] = test: SPR (Biacore 2000), collagen immobilised on CM-3 chip, peptide in solution 100 µM to 1.5 µM, from on-off kinetics

| Kd (collagen [1]) [µM] | Kd (collagen [2]) [µM] | Binder |
| --- | --- | --- |
| 0.86 |  | Dansyl-GRRANAALKAGELYKSILYGC [Dansyl-…] |
|  | 1.2 | RRANAALKAGELYKSILYGC [… (SILY) peptide] |
